# In the Immune Epitope Database (IEDB):
# How the values were obtained:
# HLA-A*23:01 = test: IEDB peptide-MHC binding, purified MHC/competitive/radioactivity; filed as Kd, often an IC50 or EC50 that approximates it; ≥ and ≤ were set here for values at or beyond the usual limits of such assays
# HLA-A*24:02 = test: as above
# HLA-A*29:02 = test: as above
# HLA-A*30:02 = test: as above
# HLA-A*26:01 [1] = test: as above
# HLA-A*01:01 = test: as above
# HLA-A*02:01 = test: IEDB peptide-MHC binding, purified MHC/competitive/fluorescence; filed as Kd, often an IC50 or EC50 that approximates it; ≥ and ≤ were set here for values at or beyond the usual limits of such assays
# HLA-A*11:01 = test: IEDB peptide-MHC binding, purified MHC/competitive/radioactivity; filed as Kd, often an IC50 or EC50 that approximates it; ≥ and ≤ were set here for values at or beyond the usual limits of such assays; conditions: source organism: Triticum aestivum
# HLA-A*33:01 = test: as above; conditions: source organism: Triticum aestivum
# HLA-A*31:01 = test: as above; conditions: source organism: Triticum aestivum
# HLA-A*68:01 = test: as above; conditions: source organism: Triticum aestivum
# HLA-A*03:01 = test: as above; conditions: source organism: Triticum aestivum
# HLA-B*07:02 = test: as above
# HLA-A*26:01 [2] = test: IEDB peptide-MHC binding, purified MHC/direct/fluorescence; filed as Kd, often an IC50 or EC50 that approximates it; ≥ and ≤ were set here for values at or beyond the usual limits of such assays; conditions: source organism: Mycobacterium tuberculosis variant bovis
# HLA-B*51:01 = test: IEDB peptide-MHC binding, purified MHC/competitive/radioactivity; filed as Kd, often an IC50 or EC50 that approximates it; ≥ and ≤ were set here for values at or beyond the usual limits of such assays
# HLA-A*02:03 = test: as above; conditions: source organism: Dengue virus 4 Philippines/H241/1956
# [3] = source organism: SARS coronavirus Tor2
# [4] = source organism: Mammarenavirus guanaritoense
# [5] = source organism: Triticum aestivum
# [6] = source organism: Dengue virus 2 Jamaica/1409/1983
# [7] = source organism: Dengue virus 1 Brazil/97-11/1997
# [8] = source organism: Mammarenavirus brazilense
# [9] = source organism: Mammarenavirus juninense
sequence,measurement,setting,value
AFEKMVSLL,Kd,HLA-A*23:01; [3],8390 nM
same,Kd,HLA-A*24:02; [3],11500 nM
same,Kd,HLA-A*29:02; [3],≥ 27400 nM
same,Kd,HLA-A*30:02; [3],≥ 81100 nM
same,Kd,HLA-A*26:01 [1]; [3],≥ 74400 nM
same,Kd,HLA-A*01:01; [3],≥ 78100 nM
AFLIGANYL,Kd,HLA-A*23:01; [3],≥ 55300 nM
same,Kd,HLA-A*24:02; [3],≥ 45900 nM
same,Kd,HLA-A*29:02; [3],≥ 26600 nM
same,Kd,HLA-A*30:02; [3],≥ 78900 nM
same,Kd,HLA-A*26:01 [1]; [3],≥ 77900 nM
same,Kd,HLA-A*01:01; [3],≥ 73000 nM
AIFFTTSLF,Kd,HLA-A*23:01; [4],246 nM
same,Kd,HLA-A*24:02; [4],1210 nM
same,Kd,HLA-A*29:02; [4],274 nM
ALSALLTKL,Kd,HLA-A*02:01; source organism: Human alphaherpesvirus 1 strain 17,313 nM
AMCNVYIPPY,Kd,HLA-A*23:01; [5],11500 nM
same,Kd,HLA-A*11:01,136 nM
same,Kd,HLA-A*24:02; [5],≥ 28300 nM
same,Kd,HLA-A*33:01,2600 nM
same,Kd,HLA-A*29:02; [5],13 nM
same,Kd,HLA-A*31:01,224 nM
same,Kd,HLA-A*68:01,921 nM
same,Kd,HLA-A*30:02; [5],874 nM
same,Kd,HLA-A*26:01 [1]; [5],854 nM
same,Kd,HLA-A*03:01,152 nM
same,Kd,HLA-A*01:01; [5],83.5 nM
AWPLIVTAL,Kd,HLA-A*23:01; [3],≥ 49000 nM
same,Kd,HLA-A*24:02; [3],≥ 77600 nM
same,Kd,HLA-A*29:02; [3],≥ 75000 nM
same,Kd,HLA-A*30:02; [3],≥ 37900 nM
same,Kd,HLA-A*26:01 [1]; [3],17700 nM
same,Kd,HLA-A*01:01; [3],≥ 23000 nM
CLERWMLVA,Kd,HLA-A*23:01; [4],≥ 77700 nM
same,Kd,HLA-A*24:02; [4],≥ 77500 nM
same,Kd,HLA-A*29:02; [4],≥ 78900 nM
same,Kd,HLA-A*30:02; [4],14900 nM
same,Kd,HLA-A*26:01 [1]; [4],≥ 77900 nM
same,Kd,HLA-A*01:01; [4],153 nM
CLTEYILWV,Kd,HLA-A*02:01; source organism: Vaccinia virus Copenhagen,10.7 nM
CTLSEQLDY,Kd,HLA-A*23:01; [3],≥ 77800 nM
same,Kd,HLA-A*24:02; [3],≥ 77600 nM
same,Kd,HLA-A*29:02; [3],1.05 nM
same,Kd,HLA-A*30:02; [3],27.6 nM
same,Kd,HLA-A*26:01 [1]; [3],842 nM
same,Kd,HLA-A*01:01; [3],8.53 nM
CYGVSATKL,Kd,HLA-A*23:01; [3],12000 nM
same,Kd,HLA-A*24:02; [3],≥ 34300 nM
same,Kd,HLA-A*29:02; [3],12200 nM
same,Kd,HLA-A*30:02; [3],≥ 81100 nM
same,Kd,HLA-A*26:01 [1]; [3],≥ 77900 nM
same,Kd,HLA-A*01:01; [3],≥ 78100 nM
DPRRCMKPV,Kd,HLA-B*07:02; [6],139 nM
DWVPTSRTTW,Kd,HLA-A*23:01; [7],6770 nM
same,Kd,HLA-A*24:02; [7],886 nM
EFFECFKYLL,Kd,HLA-A*23:01; [8],624 nM
same,Kd,HLA-A*24:02; [8],1200 nM
same,Kd,HLA-A*29:02; [8],32.7 nM
EIARIVEQM,Kd,HLA-A*26:01 [2],194 nM
ETLPAMCNVY,Kd,HLA-A*23:01; [5],≥ 38800 nM
same,Kd,HLA-A*24:02; [5],≥ 70300 nM
same,Kd,HLA-A*29:02; [5],4150 nM
same,Kd,HLA-A*30:02; [5],3660 nM
same,Kd,HLA-A*26:01 [1]; [5],205 nM
same,Kd,HLA-A*01:01; [5],415 nM
FLADKKMTL,Kd,HLA-A*02:01; source organism: Vaccinia virus WR,1.5 nM
FLFFMQGKGI,Kd,HLA-B*51:01; source organism: Dengue virus 4 Philippines/H241/1956,≥ 45200 nM
same,Kd,HLA-A*02:03,3.77 nM
FYQKTGEKS,Kd,HLA-A*24:02; [9],≥ 58700 nM
same,Kd,HLA-A*30:02; [9],≥ 40800 nM
same,Kd,HLA-A*26:01 [1]; [9],≥ 77900 nM
same,Kd,HLA-A*01:01; [9],≥ 78100 nM
GMSRIGMEV,Kd,HLA-A*02:01; source organism: SARS-CoV1,1.6 nM
GYLKPTTFM,Kd,HLA-A*23:01; [3],2540 nM
same,Kd,HLA-A*24:02; [3],12200 nM
same,Kd,HLA-A*29:02; [3],538 nM
same,Kd,HLA-A*30:02; [3],6690 nM
same,Kd,HLA-A*26:01 [1]; [3],≥ 77900 nM
same,Kd,HLA-A*01:01; [3],≥ 78100 nM
ICSSVLKRY,Kd,HLA-A*23:01; [8],14600 nM
same,Kd,HLA-A*24:02; [8],15400 nM
same,Kd,HLA-A*29:02; [8],≥ 50600 nM
same,Kd,HLA-A*30:02; [8],302 nM
same,Kd,HLA-A*26:01 [1]; [8],≥ 77900 nM
same,Kd,HLA-A*01:01; [8],470 nM
IPKNFAGPV,Kd,HLA-B*51:01; [6],3100 nM
same,Kd,HLA-B*07:02; [6],6.79 nM
ISMMGFKMNY,Kd,HLA-A*23:01; [3],≥ 31000 nM
same,Kd,HLA-A*24:02; [3],≥ 70300 nM
same,Kd,HLA-A*29:02; [3],33.4 nM
same,Kd,HLA-A*30:02; [3],4.25 nM
same,Kd,HLA-A*26:01 [1]; [3],5450 nM
same,Kd,HLA-A*01:01; [3],422 nM
KPGTSGSPIV,Kd,HLA-B*07:02; [7],1080 nM
LALLAAFKV,Kd,HLA-B*51:01; [6],812 nM
LFSGVSWVM,Kd,HLA-A*24:02; source organism: Dengue virus 3 Martinique/1243/1999,105 nM
LIDLQELGKY,Kd,HLA-A*23:01; [3],≥ 70000 nM
same,Kd,HLA-A*24:02; [3],≥ 70300 nM
same,Kd,HLA-A*29:02; [3],2820 nM
same,Kd,HLA-A*30:02; [3],38.9 nM
same,Kd,HLA-A*26:01 [1]; [3],1020 nM
same,Kd,HLA-A*01:01; [3],116 nM
